The target of experiment [1] is T1, human C5 (human, UniProt P01031). The experiment is described as follows: ELISA. A general note: ELISA stands for enzyme-linked immunosorbent assay.
Experiment [2] concerns the target T1, human C5. Nature of the experiment: BLI. In general terms: BLI is a label-free optical method that tracks binding on a fibre tip over time.
In the next experiment the target is T2, cynomolgus C5 (cynomolgus).
T2 chain: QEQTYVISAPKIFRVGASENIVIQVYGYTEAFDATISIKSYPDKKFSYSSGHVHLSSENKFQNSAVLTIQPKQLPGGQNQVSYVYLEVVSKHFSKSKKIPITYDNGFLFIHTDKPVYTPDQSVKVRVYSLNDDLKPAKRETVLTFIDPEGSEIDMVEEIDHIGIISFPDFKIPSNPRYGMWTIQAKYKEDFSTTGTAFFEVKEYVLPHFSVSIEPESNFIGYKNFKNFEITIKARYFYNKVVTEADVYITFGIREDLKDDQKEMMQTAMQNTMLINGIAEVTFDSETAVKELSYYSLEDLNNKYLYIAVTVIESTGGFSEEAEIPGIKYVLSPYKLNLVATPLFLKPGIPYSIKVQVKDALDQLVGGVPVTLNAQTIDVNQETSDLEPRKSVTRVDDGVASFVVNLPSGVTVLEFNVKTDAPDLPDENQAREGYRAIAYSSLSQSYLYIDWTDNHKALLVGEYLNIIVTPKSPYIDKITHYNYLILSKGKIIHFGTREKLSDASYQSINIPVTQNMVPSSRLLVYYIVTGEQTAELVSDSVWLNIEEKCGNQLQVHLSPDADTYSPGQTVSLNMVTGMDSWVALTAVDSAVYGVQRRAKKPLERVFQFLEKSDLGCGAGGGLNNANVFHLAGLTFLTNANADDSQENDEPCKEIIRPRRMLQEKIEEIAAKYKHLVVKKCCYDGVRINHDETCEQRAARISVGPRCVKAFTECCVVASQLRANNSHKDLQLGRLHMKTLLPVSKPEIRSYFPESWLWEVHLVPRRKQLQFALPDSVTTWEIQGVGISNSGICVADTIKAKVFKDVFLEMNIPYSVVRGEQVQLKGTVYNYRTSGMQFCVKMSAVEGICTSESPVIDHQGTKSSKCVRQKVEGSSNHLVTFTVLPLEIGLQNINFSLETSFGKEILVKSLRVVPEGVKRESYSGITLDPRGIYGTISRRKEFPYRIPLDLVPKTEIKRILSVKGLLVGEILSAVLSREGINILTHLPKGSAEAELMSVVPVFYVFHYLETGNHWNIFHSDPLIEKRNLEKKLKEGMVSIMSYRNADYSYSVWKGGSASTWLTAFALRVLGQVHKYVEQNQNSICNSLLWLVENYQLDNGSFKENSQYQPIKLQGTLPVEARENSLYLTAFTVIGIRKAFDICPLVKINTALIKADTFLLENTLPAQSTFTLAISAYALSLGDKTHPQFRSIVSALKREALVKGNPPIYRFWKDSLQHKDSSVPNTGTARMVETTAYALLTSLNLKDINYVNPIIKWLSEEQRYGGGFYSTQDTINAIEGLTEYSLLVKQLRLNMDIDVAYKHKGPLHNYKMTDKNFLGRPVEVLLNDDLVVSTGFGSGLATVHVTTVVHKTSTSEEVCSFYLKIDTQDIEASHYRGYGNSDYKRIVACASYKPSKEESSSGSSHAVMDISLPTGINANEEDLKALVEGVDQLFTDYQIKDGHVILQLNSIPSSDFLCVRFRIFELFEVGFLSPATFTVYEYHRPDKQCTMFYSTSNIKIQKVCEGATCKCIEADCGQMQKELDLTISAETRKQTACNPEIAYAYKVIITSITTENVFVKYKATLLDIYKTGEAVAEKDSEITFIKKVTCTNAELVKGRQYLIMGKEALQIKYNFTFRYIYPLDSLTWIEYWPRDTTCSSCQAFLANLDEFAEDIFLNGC
Nature of the experiment: BLI.

Another experiment deals with human C5 R885H (human, UniProt P01031). The experiment is described as follows: BLI.
In experiment [3] the target is T1, human C5. Nature of the experiment: BLI. The source holds these as a separate data set.
The target in a further experiment is human C5 W917S (human, UniProt P01031). The experiment is described as follows: BLI.
The target of experiment [4] is T3, human C3 (human, UniProt P01024). Nature of the experiment: BLI.
Experiment [5] concerns the target T1, human C5. Nature of the experiment: BLI, bivalent.
For experiment [6], the target named is T3, human C3. Nature of the experiment: BLI. This is another data set of the same source.

This is an account of results in patent US20260347449 (published 2026).

Read-outs that look alike come from different tables or passages of the source.

B1: C5S12 (antibody, V domains shown)
VH: QVQLQESGGGLVQAGGSLRLSCAASGYIFPSDDMGWYRQAPGKEREFVAAINDGASTYYADSVKGRFTISRDNAKNTVYLQMNSLKPEDTAVYYCAVQLNYYWDYVYWGQGTQVTVSS
Turning to B1, the binding result with human C5 [1] was “no binding”.

B2: C5S2.2 (antibody, V domains shown)
VH: EVQLVESGGGLVQAGGSLRLSCAASGNIFHQSDMGWYRQAPGKEREFVAAIDYGTNTYYADSVKGRFTISRDNSKNTLYLQMNSLRPEDTAVYYCAARDTSYWDHVYWGQGTLVTVSS
B2: the Kd with human C5 [2] and with human C5 [3] was 12 nM in each case. In addition, the binding result with cynomolgus C5, with human C5 R885H, in the experiment with human C5 W917S and in the experiment with human C3 [4] was “no binding” in each case.

B3: C5S2.2-Fc (antibody, V domains shown)
VH: EVQLVESGGGLVQAGGSLRLSCAASGNIFHQSDMGWYRQAPGKEREFVAAIDYGTNTYYADSVKGRFTISRDNSKNTLYLQMNSLRPEDTAVYYCAARDTSYWDHVYWGQGTLVTVSS
In the experiment with human C5 [5], B3 registered a Kd of 0.654 nM.

B4: C3S7 (antibody, V domains shown)
VH: QVQLQESGGGLVQAGGSLRLSCAASGYIFTGVDMGWYRQAPGKEREFVAAISYGASTYYADSVKGRFTISRDNAKNTVYLQMNSLKPEDTAVYYCAASLSNTYLLDLFFRYWGQGTQVTVSS
For B4, in the experiment with human C3 [6], the binding result is listed as “no binding”.
